# Reference: FireProtDB (doi:10.1016/j.bpc.2007.01.002)
# Settings: Equus caballus, Thermal, reversible: Yes
# [1] = pH 3.8, DSC, Sodium acetate 50 mM, transition: 3
# [2] = pH 4.1, DSC, Sodium acetate 50 mM
# [3] = pH 4.1, DSC, Sodium acetate 50 mM, transition: 3
# [4] = pH 4.5, DSC, Sodium acetate 50 mM
# [5] = pH 5, DSC, Sodium acetate 50 mM
# [6] = pH 5, DSC, Sodium acetate 50 mM, transition: 3
# Chain of Cytochrome c wild type, P00004 (P00004 whole entry): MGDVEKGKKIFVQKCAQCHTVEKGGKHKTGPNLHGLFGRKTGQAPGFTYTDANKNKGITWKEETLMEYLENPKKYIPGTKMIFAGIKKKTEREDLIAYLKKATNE
substance,measurement,setting,value
"Cytochrome c wild type, P00004",Tm,"pH 2.9, IATC, KCl 20 mM",40 °C
same,unfolding enthalpy (calorimetric),"pH 2.9, IATC, KCl 20 mM",68.8 kcal/mol
same,Tm,[1],68 °C
same,unfolding enthalpy (calorimetric),[1],33.7 kcal/mol
same,Tm,[2],70 °C
same,heat capacity change of unfolding,[2],1.34 kcal/mol/K
same,unfolding enthalpy (calorimetric),[2],112 kcal/mol
same,Tm,[3],69 °C
same,unfolding enthalpy (calorimetric),[3],33.7 kcal/mol
same,Tm,[4],74.1 °C
same,heat capacity change of unfolding,[4],1.51 kcal/mol/K
same,unfolding enthalpy (calorimetric),[4],119 kcal/mol
same,Tm,[5],76.2 °C
same,heat capacity change of unfolding,[5],1.39 kcal/mol/K
same,unfolding enthalpy (calorimetric),[5],124 kcal/mol
same,Tm,[6],73 °C
same,unfolding enthalpy (calorimetric),[6],37.5 kcal/mol
